In article doi:10.1101/491043 (bioRxiv, 2018):
Values joined by “and” are separate entries in the source; they are usually repeats but may differ in a detail not shown here. Equal values may be shown once.

Molecular target: the molecule itself

B1: M. tuberculosis ClpX (enzyme)
chain: not shown
  stoichiometry N: 6 and 2
